# Results: paper PMC11074293
# Assays:
# KLHL22^1–178 (human) = KLHL22^1–178 (human) (UniProt Q53GT1); assay: SEC-MALS; WTC-015S5 column, low salt buffer; complexes at 2 mg/ml, KLHL22^1–178 and KLHL12^1–161 alone at 3 mg/ml
# KLHL12^1–161 (human) = KLHL12^1–161 (human) (UniProt Q53G59); assay: as above
# KLHL12^1–161 (human), sequence (Q53G59 1-161): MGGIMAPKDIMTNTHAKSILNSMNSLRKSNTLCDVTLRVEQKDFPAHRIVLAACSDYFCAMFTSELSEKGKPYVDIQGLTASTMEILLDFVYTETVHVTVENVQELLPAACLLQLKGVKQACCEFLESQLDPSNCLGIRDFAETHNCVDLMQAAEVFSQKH
# KLHL22^1–178 (human), sequence (Q53GT1 1-178): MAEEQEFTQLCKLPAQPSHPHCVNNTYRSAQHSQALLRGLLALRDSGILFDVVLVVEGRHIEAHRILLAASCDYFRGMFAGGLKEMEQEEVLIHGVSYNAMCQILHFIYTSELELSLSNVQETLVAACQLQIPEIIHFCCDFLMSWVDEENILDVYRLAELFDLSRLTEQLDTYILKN
# CUL3^Δ1–24-RBX1, sequence (Q13618 25-768, stated change not applied): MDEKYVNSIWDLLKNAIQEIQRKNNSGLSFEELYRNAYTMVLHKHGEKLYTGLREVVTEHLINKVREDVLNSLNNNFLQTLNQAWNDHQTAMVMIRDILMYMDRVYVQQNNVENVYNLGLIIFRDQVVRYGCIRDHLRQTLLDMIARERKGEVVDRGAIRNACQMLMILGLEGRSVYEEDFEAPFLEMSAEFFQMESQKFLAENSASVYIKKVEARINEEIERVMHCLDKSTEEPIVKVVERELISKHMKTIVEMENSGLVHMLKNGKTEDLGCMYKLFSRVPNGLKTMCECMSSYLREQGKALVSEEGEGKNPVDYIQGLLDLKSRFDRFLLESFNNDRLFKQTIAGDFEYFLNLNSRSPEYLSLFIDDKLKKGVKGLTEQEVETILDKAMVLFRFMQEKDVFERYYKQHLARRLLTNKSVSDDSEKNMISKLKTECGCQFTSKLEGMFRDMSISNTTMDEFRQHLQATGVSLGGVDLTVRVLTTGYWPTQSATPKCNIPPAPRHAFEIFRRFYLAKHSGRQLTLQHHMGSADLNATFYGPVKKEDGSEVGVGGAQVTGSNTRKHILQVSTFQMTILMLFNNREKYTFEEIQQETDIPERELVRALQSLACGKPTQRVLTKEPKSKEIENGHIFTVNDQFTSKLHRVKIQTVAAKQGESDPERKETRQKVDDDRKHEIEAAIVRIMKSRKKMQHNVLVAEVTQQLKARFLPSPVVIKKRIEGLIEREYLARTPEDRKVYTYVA
# CUL3^Δ1–24-RBX1, sequence (P62877 whole entry, stated change not applied): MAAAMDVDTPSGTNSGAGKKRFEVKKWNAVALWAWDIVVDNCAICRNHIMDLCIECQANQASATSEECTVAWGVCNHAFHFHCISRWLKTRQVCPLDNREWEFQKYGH
# CUL3^WT-RBX1, sequence (Q13618 whole entry): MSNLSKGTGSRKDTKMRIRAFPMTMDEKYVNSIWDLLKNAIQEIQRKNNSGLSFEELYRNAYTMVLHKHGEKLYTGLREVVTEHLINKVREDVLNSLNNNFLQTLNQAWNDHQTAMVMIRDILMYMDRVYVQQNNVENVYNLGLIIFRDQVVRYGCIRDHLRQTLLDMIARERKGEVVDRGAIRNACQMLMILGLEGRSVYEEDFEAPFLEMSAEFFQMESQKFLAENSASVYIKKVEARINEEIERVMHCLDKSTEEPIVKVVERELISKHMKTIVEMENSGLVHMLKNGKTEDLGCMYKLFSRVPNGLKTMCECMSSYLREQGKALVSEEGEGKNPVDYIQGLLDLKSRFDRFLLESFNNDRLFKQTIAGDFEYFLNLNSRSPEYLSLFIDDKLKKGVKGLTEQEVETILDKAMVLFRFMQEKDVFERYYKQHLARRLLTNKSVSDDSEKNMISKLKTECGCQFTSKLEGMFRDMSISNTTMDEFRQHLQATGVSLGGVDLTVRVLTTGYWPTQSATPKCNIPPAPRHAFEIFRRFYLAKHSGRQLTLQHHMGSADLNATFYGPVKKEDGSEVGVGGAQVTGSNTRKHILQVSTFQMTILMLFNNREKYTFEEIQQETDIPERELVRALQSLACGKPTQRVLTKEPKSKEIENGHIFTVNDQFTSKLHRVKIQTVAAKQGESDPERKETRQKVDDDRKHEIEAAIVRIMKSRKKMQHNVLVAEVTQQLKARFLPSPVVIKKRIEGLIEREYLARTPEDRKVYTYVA
# CUL3^WT-RBX1, sequence (P62877 whole entry): as the sequence (P62877 whole entry, stated change not applied) above
Substance,stoichiometry N (CUL3-RBX1 per KLHL22^1–178 dimer) (KLHL22^1–178 (human)),stoichiometry N (CUL3-RBX1 per KLHL12^1–161 dimer) (KLHL12^1–161 (human))
CUL3^WT-RBX1 (from UniProt Q13618 1-768; P62877 1-108) (complex),2,
CUL3^Δ1–24-RBX1 (from UniProt Q13618 25-768; P62877 1-108) (complex),1,1
